Experiment in all cases: bioluminescence (BRET) titration
Background: In BRET a luciferase serves as donor, and the signal depends on an acceptor being close.

Data set [1] relates to LUMID-2C double-lysine (NL2C-2K-thiazole orange). Particulars: apparent, in base pairs; PBS pH 7.4, 0.1% (w/v) BSA, 5% DMSO, 1 nM sensor, 30 min at room temperature, then NanoGlo substrate 1:1000.
Data set [2] deals with LUMID-2C double-glycine (NL2C-2G-thiazole orange). The note with it: apparent, in base pairs; PBS pH 7.4, 0.1% (w/v) BSA, 5% DMSO, 1 nM sensor, 30 min at room temperature, then NanoGlo substrate 1:1000.
Data set [3] relates to LUMID-1C (NL1C-thiazole orange conjugate) C166S;G182C. Particulars: apparent, in base pairs; PBS pH 7.4, 0.1% (w/v) BSA, 5% DMSO, 1 nM sensor, 30 min at room temperature, then NanoGlo substrate 1:1000.
In data set [4] the test system is LUMID-1F (NL1F-thiazole orange conjugate). The note with it: apparent, in base pairs; PBS pH 7.4, 0.1% (w/v) BSA, 5% DMSO, 1 nM sensor, 30 min at room temperature, then NanoGlo substrate 1:1000.
Data set [5] relates to LUMID-2C single-lysine (NL2C-1K-thiazole orange). The note with it: apparent, in base pairs; PBS pH 7.4, 0.1% (w/v) BSA, 5% DMSO, 1 nM sensor, 30 min at room temperature, then NanoGlo substrate 1:1000.
Data set [6] deals with LUMID-2C triple-lysine (NL2C-3K-thiazole orange). Particulars: apparent, in base pairs; PBS pH 7.4, 0.1% (w/v) BSA, 5% DMSO, 1 nM sensor, 30 min at room temperature, then NanoGlo substrate 1:1000.
Data set [7] deals with LUMID-3C (NL3C-thiazole orange). The note with it: apparent, in base pairs; Hill n not fixed to 1 per Methods; PBS pH 7.4, 0.1% (w/v) BSA, 5% DMSO, 1 nM sensor, 30 min at room temperature, then NanoGlo substrate 1:1000.
The subject of data set [8] is LUMID-2F (NL2F-thiazole orange). Particulars: apparent, in base pairs; Hill n 0.65 per Fig 3 legend; PBS pH 7.4, 0.1% (w/v) BSA, 5% DMSO, 1 nM sensor, 30 min at room temperature, then NanoGlo substrate 1:1000.

LUMID-1C (NL1C-thiazole orange conjugate) C166S;G182C, sequence (chain, as listed by the source C166S G182C): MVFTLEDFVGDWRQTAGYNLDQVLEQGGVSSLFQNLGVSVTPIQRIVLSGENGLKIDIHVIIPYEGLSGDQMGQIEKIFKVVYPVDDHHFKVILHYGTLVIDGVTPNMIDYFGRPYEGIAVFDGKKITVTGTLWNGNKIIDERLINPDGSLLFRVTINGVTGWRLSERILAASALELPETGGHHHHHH

For the substance “sheared salmon sperm dsDNA (~2000 bp fragments)”, the Kd in data set [1] came out at 27 µM; in data set [2], 279 µM; in data set [3], 3100 µM; in data set [4] it was 4100 µM; in data set [5] it was 142 µM; in data set [6], 21 µM. Moreover, the values for the Kd in data set [7] and in data set [8] were 2.1 µM and 43 µM, respectively.
